Columns and labels:
[1] = biological target: truncated prolactin receptor of Nb2 cells (rat (endogenous in Nb2-11))
[2] = biological target: truncated prolactin receptor of Nb2 cells (rat (endogenous in Nb2-11)); remark: listed apart in the source

Row | Substance | EC50 of Nb2-11 cell proliferation (Alamar Blue, 3 days), Fig 3C [1] [nM] | EC50 of Nb2-11 cell proliferation (Alamar Blue, 3 days), Fig 3A [2] [nM]
1 | Fc-(FL3)-mono-hGH (from UniProt P01241 27-217) (Fc fusion) | 0.81 | 
2 | Mono-hGH-(FL3)-Fc (from UniProt P01241 27-217) (Fc fusion) |  | 1.64

From PMC12080763
